{"source": "paper PMC7972811", "key": {"[1]": {"target": "SARS-CoV-2 spike S2P (ectodomain of the SARS-CoV-2 S trimer) (SARS-CoV-2, ancestral (P0DTC2 sequence))"}, "[2]": {"target": "SARS-CoV-2 spike S2P (ectodomain of the SARS-CoV-2 S trimer) (SARS-CoV-2, ancestral (P0DTC2 sequence))", "assay": "SPR"}}}
{"substance": "2-15 IgG with the paratope somatic hypermutation Y32F (light chain) reverted to germline (antibody)", "values": [{"measurement": "pseudovirus neutralization potency, fold reduction against 2-15 IgG", "setting": "[1]", "result": 42, "unit": "fold"}, {"measurement": "fold reduction of binding affinity against 2-15 IgG", "setting": "[2]", "result": 12, "unit": "fold"}]}
